According to patent US20260125454A1 (SHANGHAI JUNSHI BIOSCIENCES, published 2026):

T1: Biotin-huCGRPaSA (human, not fully specified; biotin (position not given))
T1 construct: exact construct ('aSA') not explained; also called Biotin CGRPaSA; full-length (1-37) CGRP
T1 peptide: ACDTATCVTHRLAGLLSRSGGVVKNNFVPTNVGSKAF


biological target: CGRP antigen; assay: cell-based or functional assay

Binder | IC50 | relative activity (%) vs Ref(TEVA)
hu37 (antibody, V domains shown, 1F5 HC-1/3E5 LC-1) VH: QVQLVQSGAEVKKPGASVKVSCKASGYTFIDFNMHWVRQAPGQRLEWMGYIYPYNGDVVYNQNFTNRVTLTVDTSSSTAYMELSSLRSEDTAVYYCAREGLGGYWGQGTLVTVSS VL: DIVLTQSPDSLAVSLGERATINCKASQNIDYDGYTYLNWYQQKPGQPPKVLIYSIFNLESGVPDRFSGSGSGTDFTLTISSLQAEDVAVYYCQQSNEVPYTFGQGTKLEIK | 0.0784 µg/mL | 46%
hu50 (antibody, V domains shown, 1F5 HC-2/3E5 LC-1) VH: QVQLVQSGAEVKKPGASVKVSCKASGYTFTDFNMHWVRQAPGQRLEWMGYIYPYNGDVVYNQNFTNRVTLTVDTSSSTAYMELSSLRSEDTAVYYCAREGLGGYWGQGTLVTVSS VL: DIVLTQSPDSLAVSLGERATINCKASQNIDYDGYTYLNWYQQKPGQPPKVLIYSIFNLESGVPDRFSGSGSGTDFTLTISSLQAEDVAVYYCQQSNEVPYTFGQGTKLEIK | 0.0668 µg/mL | 46%
hu63 (antibody, V domains shown, 1F5 HC-3/3E5 LC-1) VH: QVQLVQSGAEVKKPGASVKVSCKASGYTFTDFNMHWVRQAPGQGLEWMGYIYPYNGDVVYNQNFTNRVTLTVDTSSSTAYMELRSLRSDDTAVYYCAREGLGGYWGQGTLVTVSS VL: DIVLTQSPDSLAVSLGERATINCKASQNIDYDGYTYLNWYQQKPGQPPKVLIYSIFNLESGVPDRFSGSGSGTDFTLTISSLQAEDVAVYYCQQSNEVPYTFGQGTKLEIK | 0.05 µg/mL | 62%
hu64 (antibody, V domains shown, 1F5 HC-3/3H10 LC2-1) VH: QVQLVQSGAEVKKPGASVKVSCKASGYTFTDFNMHWVRQAPGQGLEWMGYIYPYNGDVVYNQNFTNRVTLTVDTSSSTAYMELRSLRSDDTAVYYCAREGLGGYWGQGTLVTVSS VL: DIVLTQSPDSLAVSLGERATINCKASQNIDYGGYSYMNWYQQKPGQPPKVLIYSVFNLESGVPDRFSGSGSGTDFTLTISSLQAEDVAVYYCQQSNEAPYTFGQGTKLEIK | 0.0699 µg/mL | 44%

Biological target: T1, Biotin-huCGRPaSA
Assay: ELISA, supernatant; relative to chimeric C245
How it was run: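 Antibodies, including reference chimeric C245, titrated 2.5-fold from 1000 ng/mL and incubated 60 min at 37°C on wells coated with 1.0 μg/mL biotin-CGRPaSA and blocked with 2% BSA. Bound IgG detected with HRP anti-human Fc antibody and TMB, acid-stopped, absorbance 450/620 nm.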

Binder | Relative binding activity, %
hu182 (antibody, V domains shown, 3E5 HC-3/3H10 LC2-2) VH: QVQLVQSGAEVKKPGASVKVSCKASGYTFTDYNMHWVRQAPGQGLEWMGYISPYNGGTAYNQKFKFRVTLTVDTSSSTAYMELSRLRSDDTVVYYCAREGLGGYWGQGTLVTVSS VL: DIQLTQSPSSLSASVGDRVTITCKASQNIDYGGYSYMNWYQQKPGKAPKVLIYSVFNLESGVPSRFSGSGSGTDFTLTISSLQPEDFATYYCQQSNEAPYTFGQGTKLEIK | 31%
hu195 (antibody, V domains shown, 3E5 HC-4/3H10 LC2-2) VH: QVQLVQSGAEVKKPGASVKVSCKTSGYTFTDYNMHWVRQAPGQRLEWMGYISPYNAGTAYNQKFKFRVTLTVDTSSSTAYMELSSLRSEDTAVYYCAREGLGGYWGQGTLVTVSS VL: DIQLTQSPSSLSASVGDRVTITCKASQNIDYGGYSYMNWYQQKPGKAPKVLIYSVFNLESGVPSRFSGSGSGTDFTLTISSLQPEDFATYYCQQSNEAPYTFGQGTKLEIK | 23%
hu185 (antibody, V domains shown, 3E5 HC-4/1A2 LC2-3) VH: QVQLVQSGAEVKKPGASVKVSCKTSGYTFTDYNMHWVRQAPGQRLEWMGYISPYNAGTAYNQKFKFRVTLTVDTSSSTAYMELSSLRSEDTAVYYCAREGLGGYWGQGTLVTVSS VL: EIVLTQSPATLSLSPGERATLSCKASQNIDYDGYAYLNWYQQKPGQAPRVLIYSVFNLESGIPARFSGSGSGTDFTLTISSLEPEDFAVYYCQQSNEFPYTFGQGTKLEIK | 19%
hu189 (antibody, V domains shown, 3E5 HC-4/1F5 LC1-3) VH: QVQLVQSGAEVKKPGASVKVSCKTSGYTFTDYNMHWVRQAPGQRLEWMGYISPYNAGTAYNQKFKFRVTLTVDTSSSTAYMELSSLRSEDTAVYYCAREGLGGYWGQGTLVTVSS VL: DIVLTQSPASLAVSPGQRATITCKASQNIDFDGYAYMNWYQQKPGQPPKVLIYSVFNLESGVPARFSGSGSGTDFTLTINPVEADDTANYYCQQSHEVPYTFGQGTKLEIK | 73%
hu37 (antibody, V domains shown, 1F5 HC-1/3E5 LC-1) VH: QVQLVQSGAEVKKPGASVKVSCKASGYTFIDFNMHWVRQAPGQRLEWMGYIYPYNGDVVYNQNFTNRVTLTVDTSSSTAYMELSSLRSEDTAVYYCAREGLGGYWGQGTLVTVSS VL: DIVLTQSPDSLAVSLGERATINCKASQNIDYDGYTYLNWYQQKPGQPPKVLIYSIFNLESGVPDRFSGSGSGTDFTLTISSLQAEDVAVYYCQQSNEVPYTFGQGTKLEIK | 142%
hu146 (antibody, V domains shown, 3E5 HC-1/1A2 LC2-3) VH: QVQLVQSGAEVKKPGASVKVSCKTSGYTFTDYNMHWVRQAPGQRLEWMGYISPYNGGTAYNQKFKFRVTLTVDTSSSTAYMELSSLRSEDTAVYYCAREGLGGYWGQGTLVTVSS VL: EIVLTQSPATLSLSPGERATLSCKASQNIDYDGYAYLNWYQQKPGQAPRVLIYSVFNLESGIPARFSGSGSGTDFTLTISSLEPEDFAVYYCQQSNEFPYTFGQGTKLEIK | 107%
hu169 (antibody, V domains shown, 3E5 HC-2/3H10 LC2-2) VH: QVQLVQSGAEVKKPGASVKVSCKASGYTFTDYNMHWVRQAPGQRLEWMGYISPYNGGTAYNQKFKFRVTLTVDTSSSTAYMELSSLRSEDTAVYYCAREGLGGYWGQGTLVTVSS VL: DIQLTQSPSSLSASVGDRVTITCKASQNIDYGGYSYMNWYQQKPGKAPKVLIYSVFNLESGVPSRFSGSGSGTDFTLTISSLQPEDFATYYCQQSNEAPYTFGQGTKLEIK | 16%
hu194 (antibody, V domains shown, 3E5 HC-4/3H10 LC2-1) VH: QVQLVQSGAEVKKPGASVKVSCKTSGYTFTDYNMHWVRQAPGQRLEWMGYISPYNAGTAYNQKFKFRVTLTVDTSSSTAYMELSSLRSEDTAVYYCAREGLGGYWGQGTLVTVSS VL: DIVLTQSPDSLAVSLGERATINCKASQNIDYGGYSYMNWYQQKPGQPPKVLIYSVFNLESGVPDRFSGSGSGTDFTLTISSLQAEDVAVYYCQQSNEAPYTFGQGTKLEIK | 98%
hu155 (antibody, V domains shown, 3E5 HC-1/3H10 LC2-1) VH: QVQLVQSGAEVKKPGASVKVSCKTSGYTFTDYNMHWVRQAPGQRLEWMGYISPYNGGTAYNQKFKFRVTLTVDTSSSTAYMELSSLRSEDTAVYYCAREGLGGYWGQGTLVTVSS VL: DIVLTQSPDSLAVSLGERATINCKASQNIDYGGYSYMNWYQQKPGQPPKVLIYSVFNLESGVPDRFSGSGSGTDFTLTISSLQAEDVAVYYCQQSNEAPYTFGQGTKLEIK | 74%
hu104 (antibody, V domains shown, 2A2 HC-1/3H10 LC2-2) VH: QVQLVQSGAEVKKPGASVKVSCKASGYTFTDYNMHWVRQAPGQRLEWMGYVYPYNGGSAYNQKFKSRVTLTVDTSSSTAYMELSSLRSEDTAVYYCAREGLGGYWGQGTLVTVSS VL: DIQLTQSPSSLSASVGDRVTITCKASQNIDYGGYSYMNWYQQKPGKAPKVLIYSVFNLESGVPSRFSGSGSGTDFTLTISSLQPEDFATYYCQQSNEAPYTFGQGTKLEIK | 45%
hu150 (antibody, V domains shown, 3E5 HC-1/1F5 LC1-3) VH: QVQLVQSGAEVKKPGASVKVSCKTSGYTFTDYNMHWVRQAPGQRLEWMGYISPYNGGTAYNQKFKFRVTLTVDTSSSTAYMELSSLRSEDTAVYYCAREGLGGYWGQGTLVTVSS VL: DIVLTQSPASLAVSPGQRATITCKASQNIDFDGYAYMNWYQQKPGQPPKVLIYSVFNLESGVPARFSGSGSGTDFTLTINPVEADDTANYYCQQSHEVPYTFGQGTKLEIK | 64%
hu181 (antibody, V domains shown, 3E5 HC-3/3H10 LC2-1) VH: QVQLVQSGAEVKKPGASVKVSCKASGYTFTDYNMHWVRQAPGQGLEWMGYISPYNGGTAYNQKFKFRVTLTVDTSSSTAYMELSRLRSDDTVVYYCAREGLGGYWGQGTLVTVSS VL: DIVLTQSPDSLAVSLGERATINCKASQNIDYGGYSYMNWYQQKPGQPPKVLIYSVFNLESGVPDRFSGSGSGTDFTLTISSLQAEDVAVYYCQQSNEAPYTFGQGTKLEIK | 67%
hu190 (antibody, V domains shown, 3E5 HC-4/1F5 LC1-4) VH: QVQLVQSGAEVKKPGASVKVSCKTSGYTFTDYNMHWVRQAPGQRLEWMGYISPYNAGTAYNQKFKFRVTLTVDTSSSTAYMELSSLRSEDTAVYYCAREGLGGYWGQGTLVTVSS VL: DIVLTQSPDSLAVSLGERATINCKASQNIDFDGYAYMNWYQHKPGQPPKVLIYSVFNLESGVPDRFSGSGSGTDFTLTISSLQAEDVAVYYCQQSHEVPYTFGQGTKLEIK | 34%
hu168 (antibody, V domains shown, 3E5 HC-2/3H10 LC2-1) VH: QVQLVQSGAEVKKPGASVKVSCKASGYTFTDYNMHWVRQAPGQRLEWMGYISPYNGGTAYNQKFKFRVTLTVDTSSSTAYMELSSLRSEDTAVYYCAREGLGGYWGQGTLVTVSS VL: DIVLTQSPDSLAVSLGERATINCKASQNIDYGGYSYMNWYQQKPGQPPKVLIYSVFNLESGVPDRFSGSGSGTDFTLTISSLQAEDVAVYYCQQSNEAPYTFGQGTKLEIK | 68%
hu156 (antibody, V domains shown, 3E5 HC-1/3H10 LC2-2) VH: QVQLVQSGAEVKKPGASVKVSCKTSGYTFTDYNMHWVRQAPGQRLEWMGYISPYNGGTAYNQKFKFRVTLTVDTSSSTAYMELSSLRSEDTAVYYCAREGLGGYWGQGTLVTVSS VL: DIQLTQSPSSLSASVGDRVTITCKASQNIDYGGYSYMNWYQQKPGKAPKVLIYSVFNLESGVPSRFSGSGSGTDFTLTISSLQPEDFATYYCQQSNEAPYTFGQGTKLEIK | 32%
hu164 (antibody, V domains shown, 3E5 HC-2/1F5 LC1-4) VH: QVQLVQSGAEVKKPGASVKVSCKASGYTFTDYNMHWVRQAPGQRLEWMGYISPYNGGTAYNQKFKFRVTLTVDTSSSTAYMELSSLRSEDTAVYYCAREGLGGYWGQGTLVTVSS VL: DIVLTQSPDSLAVSLGERATINCKASQNIDFDGYAYMNWYQHKPGQPPKVLIYSVFNLESGVPDRFSGSGSGTDFTLTISSLQAEDVAVYYCQQSHEVPYTFGQGTKLEIK | 56%
hu177 (antibody, V domains shown, 3E5 HC-3/1F5 LC1-4) VH: QVQLVQSGAEVKKPGASVKVSCKASGYTFTDYNMHWVRQAPGQGLEWMGYISPYNGGTAYNQKFKFRVTLTVDTSSSTAYMELSRLRSDDTVVYYCAREGLGGYWGQGTLVTVSS VL: DIVLTQSPDSLAVSLGERATINCKASQNIDFDGYAYMNWYQHKPGQPPKVLIYSVFNLESGVPDRFSGSGSGTDFTLTISSLQAEDVAVYYCQQSHEVPYTFGQGTKLEIK | 25%
hu50 (antibody, V domains shown, 1F5 HC-2/3E5 LC-1) VH: QVQLVQSGAEVKKPGASVKVSCKASGYTFTDFNMHWVRQAPGQRLEWMGYIYPYNGDVVYNQNFTNRVTLTVDTSSSTAYMELSSLRSEDTAVYYCAREGLGGYWGQGTLVTVSS VL: DIVLTQSPDSLAVSLGERATINCKASQNIDYDGYTYLNWYQQKPGQPPKVLIYSIFNLESGVPDRFSGSGSGTDFTLTISSLQAEDVAVYYCQQSNEVPYTFGQGTKLEIK | 132%
hu63 (antibody, V domains shown, 1F5 HC-3/3E5 LC-1) VH: QVQLVQSGAEVKKPGASVKVSCKASGYTFTDFNMHWVRQAPGQGLEWMGYIYPYNGDVVYNQNFTNRVTLTVDTSSSTAYMELRSLRSDDTAVYYCAREGLGGYWGQGTLVTVSS VL: DIVLTQSPDSLAVSLGERATINCKASQNIDYDGYTYLNWYQQKPGQPPKVLIYSIFNLESGVPDRFSGSGSGTDFTLTISSLQAEDVAVYYCQQSNEVPYTFGQGTKLEIK | 122%
hu64 (antibody, V domains shown, 1F5 HC-3/3H10 LC2-1) VH: QVQLVQSGAEVKKPGASVKVSCKASGYTFTDFNMHWVRQAPGQGLEWMGYIYPYNGDVVYNQNFTNRVTLTVDTSSSTAYMELRSLRSDDTAVYYCAREGLGGYWGQGTLVTVSS VL: DIVLTQSPDSLAVSLGERATINCKASQNIDYGGYSYMNWYQQKPGQPPKVLIYSVFNLESGVPDRFSGSGSGTDFTLTISSLQAEDVAVYYCQQSNEAPYTFGQGTKLEIK | 116%
